The test system of assay [1] is SU-DHL-10 B cell lymphoma xenograft. The assay can be described thus: SU-DHL-10 B cell lymphoma xenograft model. Type of assay: in vivo, mouse. Conditions: SU-DHL-10 xenograft; PEG-BCT-100 20 mg/kg IV twice a week; DFMO 2% w/v in drinking water. Here is the method: In one example embodiment, SU-DHL-10 human lymphoma cells are maintained in vitro culture in RPMI1640 medium supplemented with 20% fetal bovine serum at 37° C. in an atmosphere of 5% CO2 in air. The tumour cells are routinely sub-cultured twice weekly. The cells in an exponential growth phase are harvested and counted for tumour inoculation.
One day before tumour inoculation, all mice are sub-lethally irradiated with 60Co (200 rad). Each mouse is inoculated subcutaneously at the right flank region with SU-DHL-10 tumour cells (1×10^7) in 0.1 ml of PBS/Matrigel (1:1) for tumour development. The treatments start when the mean tumour volume reached 116 mm^3. The date of tumour cell inoculation is denoted as day 0.
Four treatment groups of animals, with eight animals in each group, are tested. Control group (negative control) receives physiological saline, 20 mg/kg of PEG-BCT-100 alone, 2% w/v DFMO in drinking water, and combination of 20 mg/kg of PEG-BCT-100 and 2% w/v DFMO. PEG-BCT-100 is administered intravenously, twice a week, until euthanization while DFMO is supplied in drinking water at 2% w/v.

The subject of the next assay is K-562 leukemia xenograft. The assay can be described thus: K-562 leukemia xenograft model. Type of assay: in vivo, mouse. As to conditions: K-562 xenograft; PEG-BCT-100 20 mg/kg IV twice a week; DFMO 2% w/v in drinking water. The procedure:
In one example embodiment, the K-562 tumour cells are maintained in vitro as a suspension culture in RPMI1640 medium supplemented with 10% heat inactivated fetal bovine serum at 37° C. in an atmosphere of 5% CO2 in air. The tumour cells are routinely sub-cultured twice weekly. The cells growing in an exponential growth phase are harvested and counted for tumour inoculation.
Each mouse is inoculated subcutaneously at the right flank region with K-562 tumour cells (5×10^6) in 0.1 ml of PBS/Matrigel (1:1) for tumour development. The treatments start when the mean tumour size reaches 125 mm^3. The date of tumour cell inoculation is denoted as day 0.
(§1) Four treatment groups of animals, with eight animals in each group, are tested. Control group (negative control) receives physiological saline, and the three treatment groups respectively receive 20 mg/kg of PEG-BCT-100 alone, 2% w/v DFMO in drinking water, and combination of 20 mg/kg of PEG-BCT-100 and 2% w/v DFMO. PEG-BCT-100 is administered intravenously, twice a week, until euthanization while DFMO is supplied in drinking water at 2% w/v.

Assay [2] relates to MIA-PaCa-2 pancreatic cancer xenograft. The assay can be described thus: MIA-PaCa-2 pancreatic cancer xenograft model. Type of assay: in vivo, mouse. As to conditions: MIA-PaCa-2 xenograft; PEG-BCT-100 20 mg/kg IV twice a week; DFMO 2% w/v in drinking water. Here is the method: In one example embodiment, the MIA-PaCa-2 tumour cells are maintained in vitro culture in EMEM medium supplemented with 10% heat inactivated fetal bovine serum at 37° C. in an atmosphere of 5% CO2 in air. The tumour cells are routinely sub-cultured twice weekly. The cells growing in an exponential growth phase are harvested and counted for tumour inoculation.
Each mouse is inoculated subcutaneously at the right flank region with MIA-PaCa-2 tumour cells (5×10^6) in 0.1 ml of PBS (1:1 Matrigel) for tumour development. The treatments start when the mean tumour size reaches 124 mm^3. The date of tumour cell inoculation was denoted as day 0.
as §1

Assay [3] relates to H1650 lung adenocarcinoma xenografts. In words: H1650 lung adenocarcinoma xenograft. Type of assay: in vivo, BALB/c nude mice. Conditions: for median survival: PEG-BCT-100 20 mg/kg IP twice a week. The procedure: (§2) In one example embodiment, ten million lung adenocarcinoma cells from cell lines H1650, H1975, and HCC4006 are engrafted subcutaneously in BALB/cnude mice (4 weeks old with body weight of 10-14 g). Body weight, clinical signs and survival times are recorded.
(§3) Two groups of the mice, with eight mice in each group, are tested. Control group (negative control) receives physiological saline and treatment group receives 20 mg/kg of PEG-BCT-100. PEG-BCT-100 is administered via intraperitoneal (IP) injection, twice weekly, until euthanization.
(§4) In one example embodiment, ten million lung adenocarcinoma cells from cell lines H1650, H1975 and HCC4006 are engrafted subcutaneously in BALB/cnude mice (4 weeks old with body weight of 10-14 g). Body weight, clinical signs and survival times are recorded.
(§5) Four groups of the mice, with eight mice in each group, are tested. Control group (negative control) receives physiological saline, and the three treatment groups respectively receive 20 mg/kg of PEG-BCT-100 alone, 2% w/v DFMO in drinking water, and combination of 20 mg/kg of PEG-BCT-100 and 2% w/v DFMO. PEG-BCT-100 is administered intraperitoneally, twice a week, until euthanization while DFMO is supplied in drinking water at 2% w/v.

Assay [4] deals with Kasumi-1 leukemia xenograft. The assay can be described thus: Kasumi-1 leukemia xenograft model. Conditions: Kasumi-1 xenograft; for anti-tumour effect: PEG-BCT-100 20 mg/kg IV twice a week, DFMO 2% w/v in drinking water. Type of assay: in vivo, mouse. The procedure:
In one example embodiment, the Kasumi-1 tumour cells are maintained in vitro as a suspension culture in RPMI1640 medium supplemented with 10% heat inactivated fetal bovine serum at 37° C. in an atmosphere of 5% CO2 in air. The tumour cells are routinely sub-cultured twice weekly. The cells growing in an exponential growth phase are harvested and counted for tumour inoculation.
All mice are γ-irradiated (200 rad) for 24 h before tumour cell injection. Kasumi-1 tumour cells (1×10^7) in 0.2 ml of PBS are mixed with cultrex in a 1:1 ratio. Each mouse is inoculated subcutaneously at the right flank region with the tumour cells suspension for tumour development. The treatments start when the mean tumour size reached 114 mm^3. The date of tumour cell inoculation is denoted as day 0.
as §1

Assay [5] deals with H1975 lung adenocarcinoma xenografts. The assay can be described thus: H1975 lung adenocarcinoma xenograft. Type of assay: in vivo, BALB/c nude mice. As to conditions: for median survival: PEG-BCT-100 20 mg/kg IP twice a week. Here is the method: as §2, §3, §4, §5
Setting [6] is: PEG-BCT-100 20 mg/kg IP twice weekly, DFMO 2% w/v in drinking water, 20 mg/kg.
The mark [7] stands for this setting: PEG-BCT-100 20 mg/kg vs control arm.
The mark [8] stands for this setting: PEG-BCT-100 20 mg/kg vs control arm, 20 mg/kg.

Entries after “also recorded” stand apart in the source; their conditions may differ.

One may read the TGI as how far tumour growth fell short of that in controls.

As for `NCCC[C@](N)(C(=O)O)C(F)F` [DFMO, α-difluoromethylornithine, reference compound], the anti-tumour effect result is listed as “no significant anti-tumour effect” in assay [1], “no significant anti-tumour effect” in the assay on K-562 leukemia xenograft, “significant anti-tumour effect” in assay [2] and “significant anti-tumour activity” in assay [4]. Moreover, the median survival in assay [3] (DFMO 2% w/v in drinking water) is recorded as 17 days; in assay [5] (DFMO 2% w/v in drinking water), 18 days. The TGI in assay [4] (2% DFMO in drinking water) worked out at 45%.

B1: PEG-BCT-100: pegylated recombinant human arginase I (SEQ ID NO.1, or SEQ ID NO.3 with six histidines), about 6-12 PEG molecules per arginase (protein, UniProt P05089 1-322, looked up)
Arginase-1: MSAKSRTIGIIGAPFSKGQPRGGVEEGPTVLRKAGLLEKLKEQECDVKDYGDLPFADIPNDSPFQIVKNPRSVGKASEQLAGKVAEVKKNGRISLVLGGDHSLAIGSISGHARVHPDLGVIWVDAHTDINTPLTTTSGNLHGQPVSFLLKELKGKIPDVPGFSWVTPCISAKDIVYIGLRDVDPGEHYILKTLGIKYFSMTEVDRLGIGKVMEETLSYLLGRKKRPIHLSFDVDGLDPSFTPATGTPVVGGLTYREGLYITEEIYKTGLLSGLDIMEVNPSLGKTPEEVTRTVNTAVAITLACFGLAREGNHKPIDYLNPPK
modifications: PEG, about 6-12 per arginase; optional His6 tag
In the case of B1, the anti-tumour effect result in assay [1] is “slightly promotes SU-DHL-10 tumour growth”; with K-562 leukemia xenograft it was “no significant anti-tumour effect”; in assay [2] it was “do not produce a significant anti-tumour effect”; in assay [4] it was “no significant anti-tumour effect”. Moreover, the values for the median survival in assay [3] (DFMO 2% w/v in drinking water) and in assay [5] (DFMO 2% w/v in drinking water) were 10 days and 15 days, respectively. Also, the tumour growth result in assay [3] (setting [6]) and in assay [5] (setting [6]) was “induces lung adenocarcinoma proliferation; also recorded: promotes tumour growth” throughout. Further, the results for the “in vivo ASS1 expression (Western blot)” value in assay [3] (setting [7]) and in assay [5] (setting [7]) were “remains unchanged” and “decreases”, respectively. Also, the “in vivo ODC expression (Western blot)” value in assay [3] (setting [8]) and in assay [5] (setting [8]) was “increases; also recorded: over-expressed; also recorded: upregulated” throughout.

The values are drawn from patent US20180271960A1, “METHOD TO TREAT CANCER USING ARGININE DELPETOR AND ORNITHINE DECARBOXYLASE (ODC) INHIBITOR” (Bio-Cancer Treatment International Ltd., priority 2015, published 2018).
